Data taken from article PMC4832192, “Structural basis of DNA sequence recognition by the response regulator PhoP in Mycobacterium tuberculosis”.

What was measured:
PhoP Y205A = PhoP Y205A (Mycobacterium tuberculosis, UniProt P71814 1-247, Y205A); experiment: ITC; 5 mM MgCl2; ITC: 20 mM HEPES pH 7.5, 100 mM NaCl, 5 mM MgCl2, 25 C, […]; conditions: protein: recombinant; tags: N-terminal His-tag removed with TEV; chain copies: 2
PhoP L113D = PhoP L113D (Mycobacterium tuberculosis, UniProt P71814 1-247, L113D); experiment: as above; conditions: protein: recombinant; tags: N-terminal His-tag removed with TEV; chain copies: 2

Binder | Kd (PhoP Y205A) [nM] | Kd (PhoP L113D) [nM]
DR (dsDNA) DNA 1: ACGATTCACAGCTGATTCACAGCATCTACG DNA 2: CGTAGATGCTGTGAATCAGCTGTGAATCGT | 21.8 ± 6.2 | 26.2 ± 6.5
lpqA (dsDNA) DNA 1: GCACCTTCACCGCCCGCCCACAGCCACGCA DNA 2: TGCGTGGCTGTGGGCGGGCGGTGAAGGTGC | 3080 ± 371 | 2870 ± 541
DRs3 (3-bp spacer) (dsDNA) DNA 1: AAGTACCTCACAGCACTTCACAGCTTTCAT DNA 2: ATGAAAGCTGTGAAGTGCTGTGAGGTACTT | – | 368 ± 52.2
hisG (dsDNA) DNA 1: CGCGACCCGCAGCATGCTCACAGCTTTCGA DNA 2: TCGAAAGCTGTGAGCATGCTGCGGGTCGCG | 114 ± 11.2 | 117 ± 11.7
ahpC (dsDNA) DNA 1: TTTGCCTGACAGCGACTTCACGGCACGATG DNA 2: CATCGTGCCGTGAAGTCGCTGTCAGGCAAA | 654 ± 57.2 | 595 ± 51.4
